{"source": "paper PMC5806463", "origin": "cited, not measured here", "target": "IL-18BP (Homo sapiens) (UniProt O95998)", "sequence (O95998 31-194)": "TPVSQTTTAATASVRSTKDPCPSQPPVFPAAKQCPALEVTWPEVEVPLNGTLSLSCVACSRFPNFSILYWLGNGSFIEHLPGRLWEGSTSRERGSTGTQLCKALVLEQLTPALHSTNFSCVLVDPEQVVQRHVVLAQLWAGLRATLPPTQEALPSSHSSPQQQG", "data": [{"substance": "IL-18 (from UniProt Q14116)", "values": [{"measurement": "Kd", "result": 0.4, "unit": "nM"}]}]}
